Source: publication doi:10.1101/2021.06.29.450403

Target: recombinant rAQP4ct protein (complete cytosolic C-terminal domain of human AQP4, residues 254-323) (human) (UniProt P55087)
Assay: ITC

stoichiometry N: 1
Substance: Chicken calmodulin (CaM) (from UniProt P62149 1-149) (natural protein)
